How the values were obtained:
Assay in all cases: EMSA
[1] = test system: TALE_2c_26 (23) (Xanthomonas axonopodis scaffold (designed TALE)); conditions: 5mC at strand 1 nt 24 (site position 13, T = 0); EMSA: 20 mM Tris pH 8, 50 mM NaCl, 5 mM MgCl2, 5% glycerol; 0.1 pmol TALE + 0.5 pmol duplex in 10 uL; RT 30 min then ice 30 min; gel 0.5x TAE 4 C; GFP readout
[2] = test system: TALE_2c_26 (3) (Xanthomonas axonopodis scaffold (designed TALE)); conditions: 5mC at strand 1 nt 24 (site position 13, T = 0); EMSA: 20 mM Tris pH 8, 50 mM NaCl, 5 mM MgCl2, 5% glycerol; 0.1 pmol TALE + 0.5 pmol duplex in 10 uL; RT 30 min then ice 30 min; gel 0.5x TAE 4 C; GFP readout
[3] = test system: TALE_9a_26 R266A (Xanthomonas axonopodis scaffold (designed TALE)); conditions: 5mC at strand 1 nt 16 (site position 5, T = 0); EMSA: 20 mM Tris pH 8, 50 mM NaCl, 5 mM MgCl2, 5% glycerol; 0.1 pmol TALE + 0.5 pmol duplex in 10 uL; RT 30 min then ice 30 min; gel 0.5x TAE 4 C; GFP readout
[4] = test system: TALE_9a_26 K171A/R173A (Xanthomonas axonopodis scaffold (designed TALE)); conditions: 5mC at strand 1 nt 16 (site position 5, T = 0); EMSA: 20 mM Tris pH 8, 50 mM NaCl, 5 mM MgCl2, 5% glycerol; 0.1 pmol TALE + 0.5 pmol duplex in 10 uL; RT 30 min then ice 30 min; gel 0.5x TAE 4 C; GFP readout
[5] = test system: TALE_9a_26 R236A (Xanthomonas axonopodis scaffold (designed TALE)); conditions: 5mC at strand 1 nt 16 (site position 5, T = 0); EMSA: 20 mM Tris pH 8, 50 mM NaCl, 5 mM MgCl2, 5% glycerol; 0.1 pmol TALE + 0.5 pmol duplex in 10 uL; RT 30 min then ice 30 min; gel 0.5x TAE 4 C; GFP readout
[6] = test system: TALE_9a_26 (5*) (Xanthomonas axonopodis scaffold (designed TALE)); conditions: 5mC at strand 1 nt 16 (site position 5, T = 0); EMSA: 20 mM Tris pH 8, 50 mM NaCl, 5 mM MgCl2, 5% glycerol; 0.1 pmol TALE + 0.5 pmol duplex in 10 uL; RT 30 min then ice 30 min; gel 0.5x TAE 4 C; GFP readout
[7] = test system: TALE_9a_26 (3) (Xanthomonas axonopodis scaffold (designed TALE)); conditions: 5mC at strand 1 nt 16 (site position 5, T = 0); EMSA: 20 mM Tris pH 8, 50 mM NaCl, 5 mM MgCl2, 5% glycerol; 0.1 pmol TALE + 0.5 pmol duplex in 10 uL; RT 30 min then ice 30 min; gel 0.5x TAE 4 C; GFP readout
[8] = test system: TALE_9a_26 K262A (Xanthomonas axonopodis scaffold (designed TALE)); conditions: 5mC at strand 1 nt 16 (site position 5, T = 0); EMSA: 20 mM Tris pH 8, 50 mM NaCl, 5 mM MgCl2, 5% glycerol; 0.1 pmol TALE + 0.5 pmol duplex in 10 uL; RT 30 min then ice 30 min; gel 0.5x TAE 4 C; GFP readout

| Sequence | binding signal (fold C/5mC selectivity vs WT TALE) [1] | binding signal (fold C/5mC selectivity vs WT TALE) [2] | binding signal (fold C/5mC selectivity vs WT TALE) [3] | binding signal (fold C/5mC selectivity vs WT TALE) [4] | binding signal (fold C/5mC selectivity vs WT TALE) [5] | binding signal (fold C/5mC selectivity vs WT TALE) [6] | binding signal (fold C/5mC selectivity vs WT TALE) [7] | binding signal (fold C/5mC selectivity vs WT TALE) [8] |
| --- | --- | --- | --- | --- | --- | --- | --- | --- |
| CATCCATGAGTGAGAAACCCTGGCGGGGTGTGACATCCTCCCCCGG (double strand) [2c_26 5mC] | 1.1 | 2.5 | – | – | – | – | – | – |
| GGCCAGCCAGTCAGCCGAAGGCTCCATGCTGCTCCCCGCCGCCGGC (double strand) [9a_26 5mC] | – | – | 3 | 2.9 | 1.4 | 7.2 | 5.7 | 3 |

— PMC5678105
